Positions count from the first letter of the chain named. “And” between values parts separate entries of the source, which are not always exact repeats. Identical values can stand only once.
B1: 104R, 72A (protein, listed as Rattus norvegicus)
chain: AFDGTWKVDRNENYEKFMEKMGINVVKRKLGAHDNLKLTITQEGNKFTVKESSNFRNIDVVFELGVDFAYSAADGTELTGTWTMEGNKLVGKFKRVDNGKELIRVREISGNELIQTYTYEGVEAKRIFKKE
modifications: PEPTIDE (1)...(131) wild-type rat intestinal fatty acid binding protein
B2: 104V1, 72A (protein, listed as Rattus norvegicus)
chain: B1 chain with R104V
modifications: PEPTIDE (1)...(131) wild-type rat intestinal fatty acid binding protein
B3: 106V1, 72A (protein, listed as Rattus norvegicus)
chain: B1 chain with R104A, R106V
modifications: PEPTIDE (1)...(131) wild-type rat intestinal fatty acid binding protein
B4: 104S2, 72A (protein, listed as Rattus norvegicus)
chain: B1 chain with R104S
modifications: PEPTIDE (1)...(131) wild-type rat intestinal fatty acid binding protein
B5: 106L3, 72A (protein, listed as Rattus norvegicus)
chain: B1 chain with R104A, R106L
modifications: PEPTIDE (1)...(131) wild-type rat intestinal fatty acid binding protein
B6: 104T1, 72A (protein, listed as Rattus norvegicus)
chain: B1 chain with R104T
modifications: PEPTIDE (1)...(131) wild-type rat intestinal fatty acid binding protein
B7: 106H2, 72A (protein, listed as Rattus norvegicus)
chain: B1 chain with R104A, R106H
modifications: PEPTIDE (1)...(131) wild-type rat intestinal fatty acid binding protein
B8: 106A1, 72A (protein, listed as Rattus norvegicus)
chain: B1 chain with R104A, R106A
modifications: PEPTIDE (1)...(131) wild-type rat intestinal fatty acid binding protein
B9: 106C2, 72A (protein, listed as Rattus norvegicus)
chain: B1 chain with R104A, R106C
modifications: PEPTIDE (1)...(131) wild-type rat intestinal fatty acid binding protein
B10: 106T2, 72A (protein, listed as Rattus norvegicus)
chain: B1 chain with R104A, R106T
modifications: PEPTIDE (1)...(131) wild-type rat intestinal fatty acid binding protein
B11: 106N1, 72A (protein, listed as Rattus norvegicus)
chain: B1 chain with R104A, R106N
modifications: PEPTIDE (1)...(131) wild-type rat intestinal fatty acid binding protein
B12: 104R1, 72A (protein, listed as Rattus norvegicus)
chain: B1 chain
modifications: PEPTIDE (1)...(131) wild-type rat intestinal fatty acid binding protein
B13: 113M, 72A (protein, listed as Rattus norvegicus)
chain: B1 chain with R104A, L113M
modifications: PEPTIDE (1)...(131) wild-type rat intestinal fatty acid binding protein
B14: 104Y1, 72A (protein, listed as Rattus norvegicus)
chain: B1 chain with R104Y
modifications: PEPTIDE (1)...(131) wild-type rat intestinal fatty acid binding protein
B15: 106S2, 72A (protein, listed as Rattus norvegicus)
chain: B1 chain with R104A, R106S
modifications: PEPTIDE (1)...(131) wild-type rat intestinal fatty acid binding protein
B16: 106Y1, 72A (protein, listed as Rattus norvegicus)
chain: B1 chain with R104A, R106Y
modifications: PEPTIDE (1)...(131) wild-type rat intestinal fatty acid binding protein
B17: 106W, 72A (protein, listed as Rattus norvegicus)
chain: B1 chain with R104A, R106W
modifications: PEPTIDE (1)...(131) wild-type rat intestinal fatty acid binding protein
B18: 115A1, 72A (protein, listed as Rattus norvegicus)
chain: B1 chain with R104A, Q115A
modifications: PEPTIDE (1)...(131) wild-type rat intestinal fatty acid binding protein
B19: 115D1, 72A (protein, listed as Rattus norvegicus)
chain: B1 chain with R104A, Q115D
modifications: PEPTIDE (1)...(131) wild-type rat intestinal fatty acid binding protein
B20: 106D3, 72A (protein, listed as Rattus norvegicus)
chain: B1 chain with R104A, R106D
modifications: PEPTIDE (1)...(131) wild-type rat intestinal fatty acid binding protein
B21: 106I3, 72A (protein, listed as Rattus norvegicus)
chain: B1 chain with R104A, R106I
modifications: PEPTIDE (1)...(131) wild-type rat intestinal fatty acid binding protein
B22: 106Q, 72A (protein, listed as Rattus norvegicus)
chain: B1 chain with R104A, R106Q
modifications: PEPTIDE (1)...(131) wild-type rat intestinal fatty acid binding protein
B23: 106F1, 72A (protein, listed as Rattus norvegicus)
chain: B1 chain with R104A, R106F
modifications: PEPTIDE (1)...(131) wild-type rat intestinal fatty acid binding protein

Assay: Probe fluorescence ratio response to arachidonic acid relative to ADIFAB2
Assay type: binding
Settings: arachidonic acid; response relative to ADIFAB2
Procedure, shortened: (§1)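 Fluorescently labeled rat intestinal FABP variants were read at two emission wavelengths, near the unbound maximum (about 420 to 480 nm) and the FFA-bound maximum (about 495 to 580 nm). R = Fλ1/Fλ2 after subtracting probe-free intensity; ΔR = R+agent − R0, normalized to ADIFAB2 (rI-FABP-L72A).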

Molecule	DR/DR AA
B1	1.18 and 1.075
B2	0.63
B3	0.61
B4	1.64
B5	0.84
B6	1.01
B7	0.75
B8	0.39
B9	0.17
B10	0.43
B11	0.38
B12	1.14
B13	1.33
B14	0.36
B15	0.32
B16	0.57
B17	1.11 and 1.106
B18	1.17
B19	1.17
B20	0.66
B21	0.59
B22	0.37
B23	0.75

Assay: Probe fluorescence ratio response to linolenic acid relative to ADIFAB2
Assay type: binding
Settings: response relative to ADIFAB2
Procedure, shortened: as §1

Molecule	DR/DR LNA
B1	0.96 and 0.904
B2	0.73
B3	0.82
B4	1.54
B5	0.84
B6	1.07
B7	0.73
B8	0.52
B9	0.22
B10	0.58
B11	0.44
B12	1.13
B13	1.38
B14	0.28
B15	0.40
B16	0.60
B17	1.03
B18	1.26
B19	1.20
B20	0.77
B21	0.71
B22	0.38
B23	0.71

Assay: Probe fluorescence ratio response to linoleic acid relative to ADIFAB2
Assay type: binding
Settings: response relative to ADIFAB2
Procedure, shortened: as §1

Molecule	DR/DR LA
B1	0.93 and 0.962
B2	0.73
B3	0.82
B4	1.71
B5	0.87
B6	1.16
B7	0.78
B8	0.51
B9	0.20
B10	0.47
B11	0.45
B12	1.22
B13	1.46
B14	0.26
B15	0.36
B16	0.61
B17	1.04 and 1.042
B18	1.22
B19	1.19
B20	0.80
B21	0.68
B22	0.36
B23	0.78

Assay: Probe fluorescence ratio response to oleic acid relative to ADIFAB2
Assay type: binding
Settings: response relative to ADIFAB2
Procedure, shortened: as §1

Molecule	DR/DR OA
B1	0.88 and 0.957
B2	0.76
B3	0.84
B4	1.66
B5	0.87
B6	1.10
B7	0.82
B8	0.60
B9	0.22
B10	0.53
B11	0.50
B12	1.20
B13	1.42
B14	0.24
B15	0.48
B16	0.60
B17	0.99 and 0.991
B18	1.20
B19	1.21
B20	0.64
B21	0.72
B22	0.39
B23	0.78

Assay: Probe fluorescence ratio response to palmitic acid relative to ADIFAB2
Assay type: binding
Settings: response relative to ADIFAB2
Procedure, shortened: as §1

Molecule	DR/DR PA
B1	0.52 and 0.791
B2	0.63
B3	0.32
B4	1.57
B5	0.43
B6	0.99
B7	0.33
B8	0.16
B9	0.09
B10	0.23
B11	0.15
B12	1.00
B13	1.19
B14	0.14
B15	0.15
B16	0.27
B17	0.41 and 0.407
B18	1.11
B19	1.14
B20	0.26
B21	0.29
B22	0.18
B23	0.38

Source: patent publication US20060257938A1, “Method of screening for drugs that block ligand binding to a lipid binding protein” (priority 2005, published 2006)
